“And” between values parts separate entries of the source, which are not always exact repeats. Equal values may be shown once.
What was measured:
SARS-CoV PLP2 = SARS-CoV PLP2 (Severe acute respiratory syndrome coronavirus, UniProt P0C6U8)
[1] = tested on: T1, 10-mer oligopeptide FRLKGGAPIK (six P residues, four P′ residues)
T1 sequence: FRLKGGAPIK

[2] = tested on: T2, 10-mer oligopeptide RLKGGAPIKG (five P residues, five P′ residues)
T2 sequence: RLKGGAPIKG

[3] = tested on: T3, 11-mer Gly818-Ala819 site-containing oligopeptide VFRLKGGAPIK
T3 sequence: VFRLKGGAPIK

[4] = tested on: T4, 12-mer oligopeptide ISLKGGKIVSTC containing the Gly2740-Lys2741 cleavage site
T4 sequence: ISLKGGKIVSTC

[5] = tested on: T5, 12-mer oligopeptide RELNGGAVTRYV containing the Gly180-Ala181 cleavage site
T5 sequence: RELNGGAVTRYV

[6] = tested on: 12-mer oligopeptide […] containing the Gly818-Ala819 cleavage site
[7] = tested on: T6, 14-mer Gly818-Ala819 site-containing oligopeptide VFRLKGGAPIKGVT
T6 sequence: VFRLKGGAPIKGVT

[8] = tested on: T7, 16-mer Gly818-Ala819 site-containing oligopeptide NVFRLKGGAPIKGVTF
T7 sequence: NVFRLKGGAPIKGVTF

[9] = tested on: T8, 18-mer Gly818-Ala819 site-containing oligopeptide NNVFRLKGGAPIKGVTFG
T8 sequence: NNVFRLKGGAPIKGVTFG

[10] = tested on: T9, 8-mer oligopeptide LKGGAPIK
T9 sequence: LKGGAPIK

[11] = tested on: T10, 9-mer oligopeptide FRLKGGAPI
T10 sequence: FRLKGGAPI

[12] = tested on: BCoV 12-mer peptide substrate (P6-P1′ FSLKGGA)
[13] = tested on: Fluorogenic peptide substrate Abz-[…]-EDDNP
[14] = tested on: MHV 12-mer peptide substrate (P6-P1′ FSLKGGA)

## RELNGGAVTRYV [Gly180-Ala181]
SARS-CoV PLP2
  Cleavage % 12 hours: 5 ± 1%
  percentage of the cleavage after 12 hours of digestion: 5%

## SARS-CoV papain-like protease 2 (SARS-CoV PLP2), residues 1414-1858 of pp1a, N-terminal 6xHis tag
[1]
  Cleavage %, 2 hours: 49.9%
  Cleavage %, 12 hours: 100%
[2]
  Cleavage %, 2 hours: 14.8%
  Cleavage %, 12 hours: 56.4%
[3]
  Cleavage %, 2 hours: 52.9%
  Cleavage %, 12 hours: 100%
[4]
  Cleavage %, 2 hours: 7%
  Cleavage %, 12 hours: 29%
[5]
  Cleavage %, 12 hours: 5%
[6]
  Cleavage %, 2 h: 70.1%
  Cleavage %, 2 hours: 70% and 70.1%
  Cleavage %, 12 h: 100%
  Cleavage %, 12 hours: 100%
[7]
  Cleavage %, 2 hours: 67.6%
  Cleavage %, 12 hours: 100%
[8]
  Cleavage %, 2 hours: 63%
  Cleavage %, 12 hours: 100%
[9]
  Cleavage %, 2 hours: 60.5%
  Cleavage %, 12 hours: 100%
[10]
  Cleavage %, 2 hours: 11.4%
  Cleavage %, 12 hours: 44.7%
[11]
  Cleavage %, 2 hours: 36.2%
  Cleavage %, 12 hours: 85.1%
[12]
  Cleavage %, 2 hours: 27%
  Cleavage %, 12 hours: 85%
[13]
  Kcat/Km (µM^-1min^-1) at pH 5.25: 0.06 µM^-1min^-1
  Kcat/Km (µM^-1min^-1) at pH 6.05: 0.17 µM^-1min^-1
  Kcat/Km (µM^-1min^-1) at pH 6.82: 0.31 µM^-1min^-1
  Kcat/Km (µM^-1min^-1) at pH 7.42: 0.27 µM^-1min^-1
  Kcat/Km (µM^-1min^-1) at pH 8.01: 0.3 µM^-1min^-1
  Kcat/Km (µM^-1min^-1) at pH 8.65: 0.3 µM^-1min^-1
  Kcat/Km (µM^-1min^-1) at pH 9.20: 0.21 µM^-1min^-1
  Kcat/Km (µM^-1min^-1) at pH 9.80: 0.08 µM^-1min^-1
  Km (µM) at pH 5.25: 21.4 µM
  Km (µM) at pH 6.05: 64 µM
  Km (µM) at pH 6.82: 65.5 µM
  Km (µM) at pH 7.42: 77.2 µM
  Km (µM) at pH 8.01: 72 µM
  Km (µM) at pH 8.65: 71.5 µM
  Km (µM) at pH 9.20: 68 µM
  Km (µM) at pH 9.80: 70.5 µM
  kcat (min^-1) at pH 5.25: 1.37 min^-1
  kcat (min^-1) at pH 6.05: 11.9 min^-1
  kcat (min^-1) at pH 6.82: 20.6 min^-1
  kcat (min^-1) at pH 7.42: 19.8 min^-1
  kcat (min^-1) at pH 8.01: 21.9 min^-1
  kcat (min^-1) at pH 8.65: 22 min^-1
  kcat (min^-1) at pH 9.20: 14.1 min^-1
  kcat (min^-1) at pH 9.80: 5.99 min^-1
  pH-independent kcat value (constant C from the pH-Log kcat plot): 25.4±3.43 min^-1
  pH-independent kcat/Km value (constant C from the pH-Log (kcat/Km) plot): 0.31±0.02 min^-1µM^-1
  true Km value: corrected to 82 µM
[14]
  Cleavage %, 2 hours: 21%
  Cleavage %, 12 hours: 80%
